Reference: patent publication US20060281673A1, “Novel peptide inhibitor of hiv fusion that disrupts the internal trimeric coiled-coil of gp41” (priority 2003, published 2006)

Experiments:
[1] = biological target: pre-hairpin intermediate of gp41 (HIV-1 Env on effector cells) (HIV-1), P03377; test: cell-based or functional assay
N36^Mut(e,g) = test: cell-based or functional assay

Binder	inhibition of HIV Env-mediated cell fusion (vaccinia virus-based reporter gene assay) [1] [mM]	α: factor relating the homotrimerization association constant of L to Kref^trimer, fitted to the fusion inhibition data at λMT=1.5×10^-4 M (N36^Mut(e,g))	α: factor relating the homotrimerization association constant of L to Kref^trimer, fitted to the fusion inhibition data at λMT=1.5×10^-5 M (N36^Mut(e,g))	IC50, inhibition of HIV Env-mediated cell fusion (vaccinia virus-based reporter gene assay) [1] [nM]	fold activity in inhibiting fusion relative to N36 [1] [fold]	β: factor relating the heterotrimerization association constant of M and L to Kref^trimer, fitted to the fusion inhibition data at λMT=1.5×10^-4 M [1]	β: factor relating the heterotrimerization association constant of M and L to Kref^trimer, fitted to the fusion inhibition data at λMT=1.5×10^-5 M [1]
SGIVQQLNNQLRAEEANQHLEQLSVWGSKQNQARRL (modifications not checked) [N36^Mut(a,d)]	> 0.1	–	–	–	–	–	–
SGIDQEQNNLTRLIEAQIHELQLTQWKIKQLLARIL (modifications not checked) [N36^Mut(e,g)]	–	0.34	1.07	308	50	5.76	2.97
